From PMC11960969, “Mdga2 deficiency leads to an aberrant activation of BDNF/TrkB signaling that underlies autism-relevant synaptic and behavioral changes in mice” (PLOS Biology, 2025)

Tests used:
[1] = system: ASD animal models; conditions: cited from earlier work
[2] = system: TrkB; assay: BDNF-induced TrkB tyrosine phosphorylation in primary hippocampal neurons (IP anti-TrkB, immunoblot pTyr); type: cell-based, mouse; conditions: primary hippocampal neurons DIV 7, 30 min; Mdga2+/- and Mdga2-/- vs WT neurons; Fig 3A, S3A
Method: (§1) Fig 3 MDGA2 interacts with TrkB and suppresses TrkB activity. (A) Primary hippocampal neurons derived from Mdga2^ +/− (Het) mice and their wild-type (WT) littermates at DIV 7 were treated with different doses of BDNF for 30 min. Equal amounts of protein lysates were subjected to immunoprecipitation (IP) with an anti-TrkB antibody, followed by immunoblotting with an anti-phosphotyrosine (pTyr) antibody or the anti-TrkB antibody. The pTyr levels were quantified by densitometry, normalized to total TrkB levels, and then compared to those of WT controls. n = 3 per group. (B) WT mouse brain lysates were subjected to IP with an anti-MDGA2 antibody and a control IgG, and immunoblotted (IB) for the components indicated. mBDNF, mature BDNF; ImBDNF, immature BDNF. […] Immunoprecipitated TrkB levels were quantified by densitometry, normalized to input levels, and compared to respective controls (set to one arbitrary units). n = 3 per group. […] Levels of phosphorylated proteins were quantified by densitometry, normalized to respective total protein levels and compared to controls (set to one arbitrary units). n = 6 per group. […] P-values were determined by two-tailed unpaired Student t-test in (A) and one-way ANOVA with Tukey’s multiple comparisons test in (H, I, J). *p < 0.05, **p < 0.01, ***p < 0.001, ns: not significant. […]

[3] = system: TrkB (TrkB-VN); assay: BiFC assay in HeLa cells (TrkB-VN with MDGA2-VC or ΔMAM-VC); type: cell-based, human; conditions: 24 h, Venus fluorescence
Method: as §1

[4] = system: TrkB signaling (pTrkB, pAkt, pmTOR); assay: Immunoblotting of TrkB/Akt/mTOR phosphorylation in primary neurons transfected with MDGA2, ΔMAM or V930I; type: cell-based, mouse; conditions: for pAkt level normalized to total protein / pTrkB level normalized to total protein / pmTOR level normalized to total protein: KO neurons transfected, WT/Ctrl set to one
Method: Fig 3 MDGA2 interacts with TrkB and suppresses TrkB activity. (A) Primary hippocampal neurons derived from Mdga2^ +/− (Het) mice and their wild-type (WT) littermates at DIV 7 were treated with different doses of BDNF for 30 min. Equal amounts of protein lysates were subjected to immunoprecipitation (IP) with an anti-TrkB antibody, followed by immunoblotting with an anti-phosphotyrosine (pTyr) antibody or the anti-TrkB antibody. The pTyr levels were quantified by densitometry, normalized to total TrkB levels, and then compared to those of WT controls. n = 3 per group. (B) WT mouse brain lysates were subjected to IP with an anti-MDGA2 antibody and a control IgG, and immunoblotted (IB) for the components indicated. mBDNF, mature BDNF; ImBDNF, immature BDNF. (C) Hippocampal neurons from WT mice at DIV 7 were immunostained with antibodies against MDGA2 (red) and TrkB (green), and then counter-stained with DAPI (blue). Images were acquired by a confocal microscope. Scale bar: 10 μm. (D) Surface plasmon resonance (SPR) analysis of the binding between recombinant MDGA2 protein and recombinant TrkB protein. TrkB was immobilized on a Biacore CM5 chip and tested for its binding with MDGA2 at the concentrations indicated. (E) Computer simulation of the binding mode of TrkB and MDGA2. The predicted binding domain of TrkB (the d5 domain) is highlighted by a red square and labeled in brown. The predicted binding domain of MDGA2 (the MAM domain) is highlighted by a red square and labeled in yellow. (F) HEK293T cells were co-transfected with TrkB-Flag and GFP-tagged full-length MDGA2 (MDGA2-GFP) or an MDGA2 deletion fragment lacking the entire MAM domain (ΔMAM-GFP). Cell lysates were subjected to IP with control IgG and antibodies against Flag or GFP, and immunoblotted for the components indicated. […] The scheme of MDGA2-ΔMAM is also shown. (G) HeLa cells were co-transfected with TrkB that is tagged with the N-terminal Venus fragment (TrkB-VN) and full-length MDGA2 or MDGA2-ΔMAM that are tagged with the C-terminal Venus fragment (MDGA2-VC or ΔMAM-VC) for 24 h. After immunostaining with antibodies against MDGA2/MDGA2-ΔMAM (pink) and TrkB (red), cells were observed by confocal microscopy. Venus signal (green) indicates the interaction between MDGA2 and TrkB. Schematic diagrams depicting the BiFC assay are also shown. Scale bars: 10 μm. (H, I) Equal amounts of protein lysates from primary neurons derived from Het, KO, and their WT littermate mice (H), and from WT primary neurons transfected with GFP control, MDGA2-GFP or ΔMAM-GFP (I) were subjected to IP with IgG and an anti-BDNF antibody, and then immunoblotted for the components indicated. Immunoprecipitated TrkB levels were quantified by densitometry, normalized to input levels, and compared to respective controls (set to one arbitrary units). n = 3 per group. (J) Neurons derived from KO mice were transfected with GFP control (Ctrl), MDGA2-GFP, or MDGA2-ΔMAM-GFP, and neurons derived from their WT littermates were transfected with GFP control (Ctrl). Equal amounts of protein lysates were subjected to immunoblotting for the proteins indicated. Levels of phosphorylated proteins were quantified by densitometry, normalized to respective total protein levels and compared to controls (set to one arbitrary units). n = 6 per group. Data represent mean ± SEM. P-values were determined by two-tailed unpaired Student t-test in (A) and one-way ANOVA with Tukey’s multiple comparisons test in (H, I, J). *p < 0.05, **p < 0.01, ***p < 0.001, ns: not significant. The data underlying this figure can be found in S1 Data, specifically in the sheet labeled “Figure 3”.
Fig 7 The autism spectrum disorder (ASD)-associated MDGA2 V930I mutation impairs the MDGA2-TrkB interaction and MDGA2’s inhibitory effect on the tyrosine kinase B (TrkB) signaling. (A) Schematic depiction of the WT human MDGA2 and its V930I mutation constructs that are tagged with GFP. […]

[5] = system: BDNF-TrkB interaction; assay: BDNF-TrkB Co-IP (anti-BDNF or anti-TrkB) in primary neurons / brain of Het, KO, WT and in WT neurons transfected with MDGA2 or ΔMAM; type: cell-based, mouse; conditions: IP anti-BDNF, Fig 3I
Method: as §1

[6] = system: TrkB; assay: Co-IP of endogenous MDGA2 and TrkB from WT mouse brain lysates; type: binding
[7] = target: T1, recombinant TrkB protein (Homo sapiens, UniProt Q16620); assay: Surface plasmon resonance (Biacore CM5, immobilized TrkB); type: binding; conditions: SPR, TrkB immobilized on Biacore CM5 chip, analyte at several concentrations, Biacore T100 Evaluation software
T1 construct: Full-length human TrkB or MDGA2 cDNA was cloned into the pcDNA6-His vector; His; made in house; host or cells: HEK293T cells
T1 sequence (Q16620 32-822): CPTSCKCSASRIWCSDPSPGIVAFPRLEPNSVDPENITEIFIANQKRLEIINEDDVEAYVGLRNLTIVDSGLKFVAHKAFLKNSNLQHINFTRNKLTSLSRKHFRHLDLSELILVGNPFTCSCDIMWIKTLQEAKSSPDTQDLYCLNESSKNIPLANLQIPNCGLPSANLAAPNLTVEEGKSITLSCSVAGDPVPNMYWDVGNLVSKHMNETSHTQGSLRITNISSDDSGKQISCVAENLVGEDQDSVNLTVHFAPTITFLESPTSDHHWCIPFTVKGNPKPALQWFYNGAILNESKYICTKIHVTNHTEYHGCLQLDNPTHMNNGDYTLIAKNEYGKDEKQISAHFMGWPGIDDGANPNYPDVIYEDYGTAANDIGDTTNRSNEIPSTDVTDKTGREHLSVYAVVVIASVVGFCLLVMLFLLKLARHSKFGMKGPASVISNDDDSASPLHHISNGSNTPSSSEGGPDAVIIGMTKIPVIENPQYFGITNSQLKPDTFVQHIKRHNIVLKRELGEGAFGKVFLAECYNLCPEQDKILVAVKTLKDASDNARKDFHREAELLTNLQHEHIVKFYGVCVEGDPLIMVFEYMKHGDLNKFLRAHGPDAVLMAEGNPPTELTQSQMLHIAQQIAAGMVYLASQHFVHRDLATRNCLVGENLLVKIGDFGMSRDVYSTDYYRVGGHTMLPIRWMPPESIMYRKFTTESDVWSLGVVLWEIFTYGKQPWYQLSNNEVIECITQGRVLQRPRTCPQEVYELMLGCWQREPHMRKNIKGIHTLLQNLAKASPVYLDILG
Method: as §1

B1: brain-derived neurotrophic factor (protein)
chain: APMKEVNVHGQGNLAYPGVRTHGTLESVNGPRAGSRGLTTTSLADTFEHVIEELLDEDQKVRPNEENHKDADLYTSRVMLSSQVPLEPPLLFLLEEYKNYLDAANMSMRVRRHSDPARRGELSVCDSISEWVTAADKKTAVDMSGGTVTVLEKVPVSKGQLKQYFYETKCNPMGYTKEGCRGIDKRHWNSQCRTTQSYVRALTMDSKKRIGWRFIRIDTSCVCTLTIKRGR
For B1, the “repetitive self-grooming behavior and anxiety-like behavior” value ([1]; overexpression of BDNF, neonatally isolated rats) is listed as “rescued repetitive self-grooming behavior and anxiety-like behavior”, the social deficits ([1]; valproic acid-exposed mice) is listed as “attenuated social deficits in valproic acid-exposed mice” and the “Phosphorylation of TrkB induced by BDNF” value [2] is listed as “showed a dose-dependent manner and was much stronger in Mdga2^ +/− and Mdga2^−/− neurons than in WT neurons”.

B2: MDGA2: MAM domain containing glycosylphosphatidylinositol anchor 2; full-length human, recombinant or transfected (protein, UniProt Q7Z553 1-956, looked up)
chain: MDLLYGLVWLLTVLLEGISGQGVYAPPTVRIVHSGLACNIEEERYSERVYTIREGETLELTCLVTGHPRPQIRWTKTAGSASDRFQDSSVFNETLRITNIQRHQGGRYYCKAENGLGSPAIKSIRVDVYYLDDPVVTVHQSIGEAKEQFYYERTVFLRCVANSNPPVRYSWRRGQEVLLQGSDKGVEIYEPFFTQGETKILKLKNLRPQDYANYSCIASVRNVCNIPDKMVSFRLSNKTASPSIKLLVDDPIVVNPGEAITLVCVTTGGEPAPSLTWVRSFGTLPEKTVLNGGTLTIPAITSDDAGTYSCIANNNVGNPAKKSTNIIVRALKKGRFWITPDPYHKDDNIQIGREVKISCQVEAVPSEELTFSWFKNGRPLRSSERMVITQTDPDVSPGTTNLDIIDLKFTDFGTYTCVASLKGGGISDISIDVNISSSTVPPNLTVPQEKSPLVTREGDTIELQCQVTGKPKPIILWSRADKEVAMPDGSMQMESYDGTLRIVNVSREMSGMYRCQTSQYNGFNVKPREALVQLIVQYPPAVEPAFLEIRQGQDRSVTMSCRVLRAYPIRVLTYEWRLGNKLLRTGQFDSQEYTEYAVKSLSNENYGVYNCSIINEAGAGRCSFLVTGKAYAPEFYYDTYNPVWQNRHRVYSYSLQWTQMNPDAVDRIVAYRLGIRQAGQQRWWEQEIKINGNIQKGELITYNLTELIKPEAYEVRLTPLTKFGEGDSTIRVIKYSAPVNPHLREFHCGFEDGNICLFTQDDTDNFDWTKQSTATRNTKYTPNTGPNADRSGSKEGFYMYIETSRPRLEGEKARLLSPVFSIAPKNPYGPTNTAYCFSFFYHMYGQHIGVLNVYLRLKGQTTIENPLWSSSGNKGQRWNEAHVNIYPITSFQLIFEGIRGPGIEGDIAIDDVSIAEGECAKQDLATKNSVDGAVGILVHIWLFPIIVLISILSPRR
modifications: full-length GFP tag in some constructs
notes: MAM domain containing glycosylphosphatidylinositol anchor 2; full-length human, recombinant or transfected
In the case of B2, the “interaction with TrkB (BiFC)” value [3] is reported as “could interact with full-length MDGA2”, the “pAkt level normalized to total protein” value ([4]; replicate 1) is reported as 1.48 arbitrary units and the “pTrkB level normalized to total protein” value ([4]; replicate 1) is reported as 1.52 arbitrary units. For the same molecule, the “pmTOR level normalized to total protein” value ([4]; replicate 1) was 0.88 arbitrary units, the “pAkt level normalized to total protein” value ([4]; replicate 2) was 1.42 arbitrary units and the “pTrkB level normalized to total protein” value ([4]; replicate 2) was 1.19 arbitrary units. For the same molecule, the “pmTOR level normalized to total protein” value ([4]; replicate 2) was 1.02 arbitrary units, the “pAkt level normalized to total protein” value ([4]; replicate 3) was 1.72 arbitrary units and the “pTrkB level normalized to total protein” value ([4]; replicate 3) was 1.31 arbitrary units. For the same molecule, the “pmTOR level normalized to total protein” value ([4]; replicate 3) was 1.26 arbitrary units, the “pAkt level normalized to total protein” value ([4]; replicate 4) was 1.9 arbitrary units and the “pTrkB level normalized to total protein” value ([4]; replicate 4) was 1.16 arbitrary units. For the same molecule, the “pmTOR level normalized to total protein” value ([4]; replicate 4) was 1.35 arbitrary units, the “pAkt level normalized to total protein” value ([4]; replicate 5) was 1.87 arbitrary units and the “pTrkB level normalized to total protein” value ([4]; replicate 5) was 1.08 arbitrary units. The “pmTOR level normalized to total protein” value ([4]; replicate 5) was 1.92 arbitrary units, the “pAkt level normalized to total protein” value ([4]; replicate 6) was 1.07 arbitrary units and the “pTrkB level normalized to total protein” value ([4]; replicate 6) was 1.03 arbitrary units. For the same molecule, the “pmTOR level normalized to total protein” value ([4]; replicate 6) was 1.41 arbitrary units, the “overactivation of TrkB signaling (pTrkB, pAkt, pmTOR) upon expression” value ([4]; Mdga2-/- neurons, Fig 3J, n = 6) was “could be reversed upon the expression of full-length MDGA2” and the “interaction between BDNF and TrkB upon overexpression” value [5] was “attenuated the interaction between BDNF and TrkB”. The “interaction of endogenous MDGA2 (Co-IP)” value ([6]; IP anti-MDGA2, Fig 3B) was “immunoprecipitated TrkB and NLGN1 but not mBDNF or ImBDNF”, the “interaction of endogenous MDGA2 (Co-IP)” value ([6]; IP anti-TrkB, S3C Fig) was “specifically immunoprecipitated MDGA2 but not MDGA1” and the Kd [7] was 24.4 nM.
